Source: patent US10792367B2, “Conjugates comprising an GLP-1/glucagon dual agonist, a linker and hyaluronic acid” (SANOFI, dated 2020)
Starred links: 1 amine or outer side, 2 acyl side, 3 side chain; linkers in the order of their positions; H or OH if unused. Non-standard residues stand in square brackets, D forms with d. Groups on a side chain read outwards from the residue. No end group written: not given here. *: point of attachment. γGlu = O=C(O)[C@H](CCC(=O)[*:2])N[*:1]; Stearoyl = CCCCCCCCCCCCCCCCCC(=O)*

Target: human GLP-1 receptor (human, UniProt P43220)
Test: cell-based or functional assay

Binder: H[dS]QGTFTSDLSKQK([γGlu-Stearoyl])DEQLAKDFIEWLKAGGPSSGAPPPS-NH2 [peptide of SEQ ID NO: 6 (GLP-1/Glucagon agonist, exendin-4 derivative)]
- EC50 hGLP-1R (cAMP response, HTRF): 5.1 pM
